For data set [1] the following is noted: mice, earlier reports; cited from earlier work.
A further data set concerns anti-AChE antibody. In words: Immunogenicity in rhesus macaques: anti-AChE antibody formation by ELISA after repeated monthly administration. It is filed as in vivo. The conditions noted are these: monthly intervals, no adjuvant. An excerpt:
Anti-AChE antibody levels elicited by PEGylated rHuAChE, were compared to those induced by nonmodified rHuAChE or FBS-AChE, following their administration to rhesus macaques. To this end, non-modified or PEG-modified AChE or the heterologous FBS-AChE (no adjuvant included) were repeatedly administered to monkeys at monthly intervals, and anti-AChE antibody formation was monitored by ELISA (FIG. 8).
For orientation: An ELISA detects its analyte on a solid surface through an enzyme-linked reagent.

Regarding “horse BChE: serum derived horse butyrylcholinesterase [reference compound]”, the “MRT (mean residual time)” value in data set [1] is “approximately 1,400 minutes”.

B1: serum derived human BChE: serum derived human butyrylcholinesterase (protein, UniProt P06276 29-602, looked up)
Cholinesterase: EDDIIIATKNGKVRGMNLTVFGGTVTAFLGIPYAQPPLGRLRFKKPQSLTKWSDIWNATKYANSCCQNIDQSFPGFHGSEMWNPNTDLSEDCLYLNVWIPAPKPKNATVLIWIYGGGFQTGTSSLHVYDGKFLARVERVIVVSMNYRVGALGFLALPGNPEAPGNMGLFDQQLALQWVQKNIAAFGGNPKSVTLFGESAGAASVSLHLLSPGSHSLFTRAILQSGSFNAPWAVTSLYEARNRTLNLAKLTGCSRENETEIIKCLRNKDPQEILLNEAFVVPYGTPLSVNFGPTVDGDFLTDMPDILLELGQFKKTQILVGVNKDEGTAFLVYGAPGFSKDNNSIITRKEFQEGLKIFFPGVSEFGKESILFHYTDWVDDQRPENYREALGDVVGDYNFICPALEFTKKFSEWGNNAFFYYFEHRSSKLPWPEWMGVMHGYEIEFVFGLPLERRDNYTKAEEILSRSIVKRWANFAKYGNPNETQNNSTSWPVFKSTEQKYLTLNTESTRIMTKLRAQQCRFWTSFFPKVLEMTGNIDEAEWEWKAGFHRWNNYMMDWKNQFNDYTSKKESCVGL
As for B1, the “MRT (mean residual time)” value in data set [1] is on record as “approximately 1,400 minutes”.

B2: fetal bovine AChE: serum derived fetal bovine AChE; heterologous FBS-AChE in the monkey study (protein, UniProt P23795 31-613, looked up)
Acetylcholinesterase: EGPEDPELLVMVRGGRLRGLRLMAPRGPVSAFLGIPFAEPPVGPRRFLPPEPKRPWPGVLNATAFQSVCYQYVDTLYPGFEGTEMWNPNRELSEDCLYLNVWTPYPRPSSPTPVLVWIYGGGFYSGASSLDVYDGRFLTQAEGTVLVSMNYRVGAFGFLALPGSREAPGNVGLLDQRLALQWVQENVAAFGGDPTSVTLFGESAGAASVGMHLLSPPSRGLFHRAVLQSGAPNGPWATVGVGEARRRATLLARLVGCPPGGAGGNDTELVACLRARPAQDLVDHEWRVLPQESVFRFSFVPVVDGDFLSDTPEALINAGDFHGLQVLVGVVKDEGSYFLVYGAPGFSKDNESLISRAQFLAGVRVGVPQASDLAAEAVVLHYTDWLHPEDPARLREALSDVVGDHNVVCPVAQLAGRLAAQGARVYAYIFEHRASTLSWPLWMGVPHGYEIEFIFGLPLEPSLNYTIEERTFAQRLMRYWANFARTGDPNDPRDPKAPQWPPYTAGAQQYVSLNLRPLEVRRGLRAQACAFWNRFLPKLLSATDTLDEAERQWKAEFHRWSSYMVHWKNQFDHYSKQDRCSDL
With B2, the “development of anti-AChE antibody after repeated administrations” value in the data set on anti-AChE antibody is “following the third administration”. For the same molecule, the “MRT (mean residual time)” value in data set [1] is listed as “approximately 1,400 minutes”.

The values above are taken from patent US8980609B2, “Uniformly conjugated serine hydrolases” (Israel Institute for Biological Research, priority 2005, dated 2015).
